Laboratory results taken from IntAct's records for PubMed 19151721.

B1: SLAM family member 7 (Mus musculus), Q8BHK6 (parent)
chain: MARFSTYIIFTSVLCQLTVTAASGTLKKVAGALDGSVTFTLNITEIKVDYVVWTFNTFFLAMVKKDGVTSQSSNKERIVFPDGLYSMKLSQLKKNDSGAYRAEIYSTSSQASLIQEYVLHVYKHLSRPKVTIDRQSNKNGTCVINLTCSTDQDGENVTYSWKAVGQGDNQFHDGATLSIAWRSGEKDQALTCMARNPVSNSFSTPVFPQKLCEDAATDLTSLRGILYILCFSAVLILFAVLLTIFHTTWIKKGKGCEEDKKRVDRHQEMPDLCPHLEENADYDTIPYTEKRRPEEDAPNTFYSTVQIPKVVKSPSSLPAKPLVPRSLSFENVI
partner: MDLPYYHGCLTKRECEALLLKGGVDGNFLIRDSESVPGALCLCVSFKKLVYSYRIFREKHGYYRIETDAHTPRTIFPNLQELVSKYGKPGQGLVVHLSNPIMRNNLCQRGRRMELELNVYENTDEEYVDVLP

Variants of: B1
Conditions: with sh21b_mouse Sh2d1b

| effect of a mutation on the interaction | Variant |
| --- | --- |
| disrupting interaction | Y302F |
| disrupting interaction | Y282F;Y287F;Y302F |
